In patent US20250304703A1 (AKESO BIOPHARMA, published 2025):

How the values were obtained:
human IL-4RA-hFc [1] = molecular target: T1, human IL-4RA-hFc (human, UniProt P24394 26-232); experiment: indirect ELISA, coated IL-4RA-hFc 1 ug/mL, 4-parameter fit
T1 construct: mature; no linker is stated
T1 sequence (looked up): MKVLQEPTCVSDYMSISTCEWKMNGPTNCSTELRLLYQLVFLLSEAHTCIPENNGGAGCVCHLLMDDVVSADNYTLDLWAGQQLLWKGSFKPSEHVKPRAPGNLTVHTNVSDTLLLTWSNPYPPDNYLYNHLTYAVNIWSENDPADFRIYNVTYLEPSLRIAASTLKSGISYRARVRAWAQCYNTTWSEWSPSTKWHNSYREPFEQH
Description: Procedures: The Elisa plates were coated with human IL-4RA-hFc or human IL-4RA-mFc and were incubated, and the target antibodies were added after blocking. […] The plates were incubated and washed before TMB (Neogen, 308177) was added for chromogenic reaction. At the end of the reaction, the absorbance at 450 nm was measured by a microplate reader. The data were analyzed and processed by SoftMax Pro 6.2.1.

human IL-4RA-hFc [2] = molecular target: T1, human IL-4RA-hFc; experiment: competitive ELISA, competitor IL4-N-His, coated IL-4RA-hFc, 4-parameter fit
Description: (§1) The Elisa plates were coated with human IL-4RA-hFc and blocked before the target antibodies were added. […] After the plates were washed, mouse anti-His, HRP (purchased from CoWin Biosciences, Cat No. CW0285A) was added for incubation. The plates were subjected to another wash. A chromogenic reaction was performed by adding TMB (Neogen, 308177) and was then terminated. The Elisa plates were put into a microplate reader immediately, and the OD value of each well in the Elisa plates was read at 450 nm. The data were analyzed and processed by SoftMax Pro 6.2.1.
By 4-parameter logistic regression of absorbance vs. antibody concentration, the blocking EC₅₀ of the antibodies was calculated.

human IL-4RA-hFc [3] = molecular target: T1, human IL-4RA-hFc; experiment: competitive ELISA, competitor IL4-N-His (anti-His signal); antibody 3 ug/mL
Description: as §1

EC50 (human IL-4RA-hFc [1]): 0.084 nM
EC50 (human IL-4RA-hFc [2]): 3 nM
OD 450 nm (human IL-4RA-hFc [3]): 0.053 OD
B1: anti-human IL-4RA antibody 13E5 (antibody, V domains shown)
VH: EVQLQQSGPELVKPGASVKISCKTSGYTFTEYTIHWVKQNHGKSLEWIGGINPNNGGTVYNQNFKGKATLTVDKSSSTAYMELRSLTSEDSAVYYCARVRRGMDYWGQGTSVTVSS
VL: DIVMTQSHKFMSTSVGDRVSITCKASQDVTTAVAWYQQKPGQSPKLLIYSASYRYTGVPDRFTGSGSGTDFTFTISSVQAEDLAVYYCQQHYSAPWTFGGGTNLEIK
notes: also called murine antibody 13E5; monoclonal antibody of hybridoma cell line LT008 (IL-4RA-13E5), CCTCC NO: C2018131
